# Changes are numbered by the printed parent chain.
# T1: ZFP SBS#1080 (synthetic)
# T1 chain: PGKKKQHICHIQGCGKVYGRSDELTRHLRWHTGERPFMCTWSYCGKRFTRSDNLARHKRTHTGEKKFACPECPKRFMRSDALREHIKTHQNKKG
# T2: ZFP SBS#1071 (synthetic, UniProt P08047)
# T2 chain: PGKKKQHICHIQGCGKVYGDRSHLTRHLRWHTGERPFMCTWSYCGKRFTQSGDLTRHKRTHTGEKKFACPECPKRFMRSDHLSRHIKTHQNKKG
# T3: ZFP SBS#1070 (synthetic, UniProt P08047)
# T3 chain: T2 chain with D53S
# T4: ZFP SBS#464 (synthetic)
# T4 chain: T1 chain with E23N, A81S, R83A, E84R
# T5: ZFP SBS#463 (synthetic)
# T5 chain: T1 chain with E23N, R83A, E84R
# T6: ZFP SBS#1083 (synthetic)
# T6 chain: T1 chain with R20Q, D22G, E23D, N53A, A55S
# T7: ZFP SBS#1089 (synthetic)
# T7 chain: T1 chain with R20Q, D22S, E23D, T25R, R78D, S79R, D80S, A81N, R83T, E84R
# T8: ZFP SBS#1097 (synthetic)
# T8 chain: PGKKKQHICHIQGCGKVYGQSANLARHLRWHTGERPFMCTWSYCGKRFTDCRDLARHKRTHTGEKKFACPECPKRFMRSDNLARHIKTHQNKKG
# T9: ZFP SBS#1077 (synthetic)
# T9 chain: T2 chain with D20R, R21S, S22D, H23E, T55R, H81E, L82R, S83K
# T10: ZFP SBS#1076 (synthetic)
# T10 chain: T2 chain with D20R, R21S, S22D, H23E, D53S, H81E, L82R, S83K
# T11: ZFP SBS#1068 (synthetic)
# T11 chain: T2 chain with Q50R, G52D, D53H, R78Q, D80G, H81D, S83T
# T12: ZFP SBS#1075 (synthetic)
# T12 chain: T1 chain with N53A, A55T, R56K, R83T, E84R
# T13: ZFP SBS#980 (synthetic, UniProt P08047)
# T13 chain: T1 chain with E23D, N53E, A55Q
# T14: ZFP SBS#1082 (synthetic)
# T14 chain: T1 chain with N53E, A55T
# T15: ZFP SBS#1069 (synthetic)
# T15 chain: T2 chain with Q50R, G52D, D53H, R78Q, D80G, H81S, S83T
# T16: ZFP SBS#1095 (synthetic)
# T16 chain: T2 chain with D20E, S22G, H23D, S51R, G52A, D53H, T55E
# T17: ZFP SBS#1096 (synthetic)
# T17 chain: T2 chain with H23S, S51R, G52A, D53H, T55E
# T18: ZFP SBS#1102 (synthetic)
# T18 chain: T8 chain with D50Q, C51S, R52G, D53S, A55T, A83T, R84Q
# T19: ZFP SBS#1088 (synthetic, UniProt P08047)
# T19 chain: T1 chain with R20E, S21R, D22G, E23D, N53E, A55Q, A81H
# T20: ZFP SBS#1087 (synthetic, UniProt P08047)
# T20 chain: T1 chain with R20E, S21R, D22G, E23D, N53E, A55Q, A81H, R83A
# T21: ZFP SBS#1085 (synthetic)
# T21 chain: T1 chain with R78Q, D80S, A81H, R83A, E84R
# T22: ZFP SBS#1084 (synthetic)
# T22 chain: T1 chain with R78M, D80H, A81H, R83S, E84R
# T23: ZFP SBS#1094 (synthetic)
# T23 chain: T2 chain with D20T, R21S, S22G, T25V, G52S, D53A, H81E, L82R, S83K
# T24: ZFP SBS#1081 (synthetic, UniProt P08047)
# T24 chain: T1 chain with E23A, A55T, A81H, R83S, E84R
# B1: CTGGAGGCG (dsDNA)
# DNA 1: CTGGAGGCG
# DNA 2: CGCCTCCAG
# B2: GGGGCAGGC (dsDNA)
# DNA 1: GGGGCAGGC
# DNA 2: GCCTGCCCC
# B3: GTGGAGGAGA (dsDNA)
# DNA 1: GTGGAGGAGA
# DNA 2: TCTCCTCCAC
# B4: CTGGTGGCA (dsDNA)
# DNA 1: CTGGTGGCA
# DNA 2: TGCCACCAG
# B5: GACGAGGCT (dsDNA)
# DNA 1: GACGAGGCT
# DNA 2: AGCCTCGTC
# B6: GGATTGGCT (dsDNA)
# DNA 1: GGATTGGCT
# DNA 2: AGCCAATCC
# B7: GAGGCCGAA (dsDNA)
# DNA 1: GAGGCCGAA
# DNA 2: TTCGGCCTC
# B8: CTGGCAGCC (dsDNA)
# DNA 1: CTGGCAGCC
# DNA 2: GGCTGCCAG
# B9: GCGGCAGCG (dsDNA)
# DNA 1: GCGGCAGCG
# DNA 2: CGCTGCCGC
# B10: GCAGGGGGC (dsDNA)
# DNA 1: GCAGGGGGC
# DNA 2: GCCCCCTGC
# B11: GGGGCTCGG (dsDNA)
# DNA 1: GGGGCTCGG
# DNA 2: CCGAGCCCC
# B12: GTGTTGGCG (dsDNA)
# DNA 1: GTGTTGGCG
# DNA 2: CGCCAACAC
# B13: GGGGGGGCC (dsDNA)
# DNA 1: GGGGGGGCC
# DNA 2: GGCCCCCCC
# B14: CTGGCGGCG (dsDNA)
# DNA 1: CTGGCGGCG
# DNA 2: CGCCGCCAG
# B15: GCAGGCGGT (dsDNA)
# DNA 1: GCAGGCGGT
# DNA 2: ACCGCCTGC
# B16: GGGGGAGCC (dsDNA)
# DNA 1: GGGGGAGCC
# DNA 2: GGCTCCCCC
# B17: AAGGCAGAA (dsDNA)
# DNA 1: AAGGCAGAA
# DNA 2: TTCTGCCTT
# B18: CGGGCGGCC (dsDNA)
# DNA 1: CGGGCGGCC
# DNA 2: GGCCGCCCG
# B19: GGTGAGGCG (dsDNA)
# DNA 1: GGTGAGGCG
# DNA 2: CGCCTCACC
# B20: GCGGTTGGT (dsDNA)
# DNA 1: GCGGTTGGT
# DNA 2: ACCAACCGC
# B21: GGGGAGGTG (dsDNA)
# DNA 1: GGGGAGGTG
# DNA 2: CACCTCCCC
# Legend:
# Test in all cases: EMSA
# Settings in all cases: tags: MBP fusion
# ZFP SBS#1080 = biological target: T1, ZFP SBS#1080
# How it was run: (§1)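 Purified ZFP was titrated against labeled double-stranded target (1 nM or lower, at least 10-fold below expected Kd) carrying the natural binding site with flanks. Binding buffer was 10 mM Tris pH 7.5, 100 mM KCl, 1 mM MgCl2, 0.1 mM ZnCl2, 5 mM DTT, 10% glycerol, 0.02% BSA, with equilibration for at least 45 min. Bound and free target were separated on a 10% polyacrylamide gel.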
# ZFP SBS#1071 = biological target: T2, ZFP SBS#1071
# How it was run: as §1
# ZFP SBS#1070 = biological target: T3, ZFP SBS#1070
# How it was run: as §1
# ZFP SBS#464 = biological target: T4, ZFP SBS#464
# How it was run: as §1
# ZFP SBS#463 = biological target: T5, ZFP SBS#463
# How it was run: as §1
# ZFP SBS#1083 = biological target: T6, ZFP SBS#1083
# How it was run: as §1
# ZFP SBS#1089 = biological target: T7, ZFP SBS#1089
# How it was run: as §1
# ZFP SBS#1072 = ZFP SBS#1072 (synthetic)
# Sequence of ZFP SBS#1072 (synthetic) (chain, as listed by the source): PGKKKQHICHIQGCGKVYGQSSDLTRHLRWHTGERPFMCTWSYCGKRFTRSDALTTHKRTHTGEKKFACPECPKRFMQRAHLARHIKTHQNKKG
# How it was run: as §1
# ZFP SBS#1073 = ZFP SBS#1073 (synthetic)
# Sequence of ZFP SBS#1073 (synthetic) (chain, as listed by the source): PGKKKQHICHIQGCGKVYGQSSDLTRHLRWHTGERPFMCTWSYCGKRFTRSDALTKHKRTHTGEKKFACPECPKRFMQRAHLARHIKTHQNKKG
# How it was run: as §1
# ZFP SBS#1097 = biological target: T8, ZFP SBS#1097
# How it was run: as §1
# ZFP SBS#1106 = ZFP SBS#1106 (synthetic)
# Sequence of ZFP SBS#1106 (synthetic) (chain, as listed by the source): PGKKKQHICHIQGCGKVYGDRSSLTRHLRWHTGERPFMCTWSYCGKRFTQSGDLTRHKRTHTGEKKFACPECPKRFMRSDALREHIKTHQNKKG
# How it was run: as §1
# ZFP SBS#1105 = ZFP SBS#1105 (synthetic)
# Sequence of ZFP SBS#1105 (synthetic) (chain, as listed by the source): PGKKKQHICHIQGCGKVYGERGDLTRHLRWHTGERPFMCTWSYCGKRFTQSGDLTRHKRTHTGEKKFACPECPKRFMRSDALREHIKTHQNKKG
# How it was run: as §1
# ZFP SBS#1077 = biological target: T9, ZFP SBS#1077
# How it was run: as §1
# ZFP SBS#1076 = biological target: T10, ZFP SBS#1076
# How it was run: as §1
# ZFP SBS#1068 = biological target: T11, ZFP SBS#1068
# How it was run: as §1
# ZFP SBS#1086 = ZFP SBS#1086 (synthetic)
# How it was run: as §1
# ZFP SBS#1075 = biological target: T12, ZFP SBS#1075
# How it was run: as §1
# ZFP SBS#1078 = ZFP SBS#1078 (synthetic, UniProt P08047)
# Sequence of ZFP SBS#1078 (P08047 other isoform, or with tags, fused parts or gaps): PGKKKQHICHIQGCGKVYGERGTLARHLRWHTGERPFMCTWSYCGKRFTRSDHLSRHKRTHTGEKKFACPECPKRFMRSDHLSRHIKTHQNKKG
# How it was run: as §1
# ZFP SBS#1079 = ZFP SBS#1079 (synthetic, UniProt P08047)
# How it was run: as §1
# ZFP SBS#979 = ZFP SBS#979 (synthetic, UniProt P08047)
# How it was run: as §1
# ZFP SBS#980 = biological target: T13, ZFP SBS#980
# How it was run: as §1
# ZFP SBS#1082 = biological target: T14, ZFP SBS#1082
# How it was run: as §1
# ZFP SBS#1069 = biological target: T15, ZFP SBS#1069
# How it was run: as §1
# ZFP SBS#1095 = biological target: T16, ZFP SBS#1095
# How it was run: as §1
# ZFP SBS#1096 = biological target: T17, ZFP SBS#1096
# How it was run: as §1
# ZFP SBS#1102 = biological target: T18, ZFP SBS#1102
# How it was run: as §1
# ZFP SBS#1103 = ZFP SBS#1103 (synthetic)
# Sequence of ZFP SBS#1103 (synthetic) (chain, as listed by the source): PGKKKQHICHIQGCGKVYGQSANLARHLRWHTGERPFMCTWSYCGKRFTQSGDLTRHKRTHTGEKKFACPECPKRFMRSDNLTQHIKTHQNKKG
# How it was run: as §1
# ZFP SBS#1088 = biological target: T19, ZFP SBS#1088
# How it was run: as §1
# ZFP SBS#1087 = biological target: T20, ZFP SBS#1087
# How it was run: as §1
# ZFP SBS#1085 = biological target: T21, ZFP SBS#1085
# How it was run: as §1
# ZFP SBS#1084 = biological target: T22, ZFP SBS#1084
# How it was run: as §1
# ZFP SBS#1094 = biological target: T23, ZFP SBS#1094
# How it was run: as §1
# ZFP SBS#1081 = biological target: T24, ZFP SBS#1081
# How it was run: as §1
binder,measurement,setting,value
B1,Kd,ZFP SBS#1080,1.37 nM
B2,Kd,ZFP SBS#1071,0.2 nM
same,Kd,ZFP SBS#1070,0.456 nM
B3,Kd,ZFP SBS#464,0.4 nM
same,Kd,ZFP SBS#463,0.5 nM
B4,Kd,ZFP SBS#1083,0.152 nM
B5,Kd,ZFP SBS#1089,0.171 nM
B6,Kd,ZFP SBS#1072,0.46 nM
same,Kd,ZFP SBS#1073,1.37 nM
B7,Kd,ZFP SBS#1097,0.77 nM
B8,Kd,ZFP SBS#1106,0.19 nM
same,Kd,ZFP SBS#1105,2.45 nM
B9,Kd,ZFP SBS#1077,6.2 nM
same,Kd,ZFP SBS#1076,4.1 nM
B10,Kd,ZFP SBS#1068,2.05 nM
B11,Kd,ZFP SBS#1086,0.1 nM
B12,Kd,ZFP SBS#1075,0.915 nM
B13,Kd,ZFP SBS#1078,0.2 nM
same,Kd,ZFP SBS#1079,4.1 nM
B14,Kd,ZFP SBS#979,1.59 nM
same,Kd,ZFP SBS#980,2.2 nM
same,Kd,ZFP SBS#1082,0.152 nM
B15,Kd,ZFP SBS#1069,0.1 nM
B16,Kd,ZFP SBS#1095,0.395 nM
same,Kd,ZFP SBS#1096,0.019 nM
B17,Kd,ZFP SBS#1102,8.15 nM
same,Kd,ZFP SBS#1103,1.4 nM
B18,Kd,ZFP SBS#1088,0.905 nM
same,Kd,ZFP SBS#1087,1.24 nM
B19,Kd,ZFP SBS#1085,0.46 nM
same,Kd,ZFP SBS#1084,0.5 nM
B20,Kd,ZFP SBS#1094,12.3 nM
B21,Kd,ZFP SBS#1081,0.05 nM

# From patent US20030068675, “Position dependent recognition of GNN nucleotide triplets by zinc fingers” (published 2003)
